The results in this text go back to US20260146077A1 (US Dept. of Health and Human Services, published 2026).

Holding throughout (test): cell-based or functional assay
Experiment [1] deals with T1, SARS-CoV-2 spike protein, BA.1 (SARS-CoV-2, UniProt P0DTC2 14-1273).
Experiment [2] deals with T2, SARS-CoV-2 spike protein, BA.2.12.1 (SARS-CoV-2, UniProt P0DTC2 14-1273).
Experiment [3] has as its target T1, SARS-CoV-2 spike protein, BA.1. This is another data set of the same source.
Experiment [4] concerns the target T2, SARS-CoV-2 spike protein, BA.2.12.1. The source holds these as a separate data set.
For experiment [5], the target named is SARS-CoV-2 spike protein, B.1.617.2 (SARS-CoV-2, UniProt P0DTC2 14-1273).
Experiment [6] addresses SARS-CoV-2 spike protein, B.1.351 (SARS-CoV-2, UniProt P0DTC2 14-1273).
Experiment [7] concerns the target BA.2.75.
Experiment [8] addresses BA.4.6.
For experiment [9], the target named is SARS-CoV-2 spike protein, BA.1.1 (SARS-CoV-2, UniProt P0DTC2 14-1273).
Experiment [10] deals with SARS-CoV-2 spike protein, BA.2 (SARS-CoV-2, UniProt P0DTC2 14-1273).

B1: A23-58.1HC/58.1LC_94GLT (antibody, V domains shown)
VH: not shown
VL: EIVLTQSPGTLSLSPGERATLSCRASQSVSSSYLAWYQQKPGQAPRLLIYSASSRATGIPDRFSGSGSGTDFTLTISRLEPEDFAVYFCQQYGGLTWTFGQGTKVEIK
Take B1: the “BA.1 neutralization, fold improvement over A19-58.1” value in [1] came to 7 fold. Moreover, the “pseudovirus neutralization IC50” value in [1] was 13.7 ng/mL; in experiment [2], 25 ng/mL. Moreover, the “neutralization IC80” value in experiment [3] stood at 46.4 ng/mL; in experiment [4], 105 ng/mL.

B2: A23-58.1HC/58.1LC_94GLTG (antibody, V domains shown)
VH: not shown
VL: EIVLTQSPGTLSLSPGERATLSCRASQSVSSSYLAWYQQKPGQAPRLLIYSASSRATGIPDRFSGSGSGTDFTLTISRLEPEDFAVYFCQQYGGLTGWTFGQGTKVEIK
As for B2, the “BA.1 neutralization, fold improvement over A19-58.1” value in [1] is more than 27 fold. The “neutralization IC50” value came out at 2.9 ng/mL in [5]; 1.8 ng/mL in experiment [6]; 3.6 ng/mL in experiment [3]; 1 ng/mL in experiment [7]; 4.2 ng/mL in [8]; 1.9 ng/mL in experiment [4]. The “neutralization IC80” value is 11.2 ng/mL in experiment [5]; 4.4 ng/mL in experiment [6]; 11.9 ng/mL in experiment [3]; 3.1 ng/mL in experiment [7]; 15.7 ng/mL in experiment [8]; 9.2 ng/mL in [4].

B3: A23-58.1HC_Y100cA/S2E12LC (antibody, V domains shown)
VH: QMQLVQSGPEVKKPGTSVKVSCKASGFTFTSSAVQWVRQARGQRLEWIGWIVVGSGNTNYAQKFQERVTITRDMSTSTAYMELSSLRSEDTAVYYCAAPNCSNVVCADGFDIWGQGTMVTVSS
VL: DIVLTQTPGTLSLSPGERATLSCRASQSVSSSYLAWYQQKPGQAPRLLIYGASSRATGIPDRFSGSGSGTDFTLTISRLEPEDFAVYYCQQYVGLTGWTFGQGTKVEIK
In the case of B3, the “BA.1 neutralization, fold improvement over A19-58.1” value in experiment [1] was 20 fold. Also, the “neutralization IC50” value in experiment [5] is 2.9 ng/mL; in experiment [6], 2.6 ng/mL; in [3], 4.9 ng/mL; in experiment [9], 4.4 ng/mL; in experiment [10] it was 8.4 ng/mL; in experiment [4] it was 35.1 ng/mL. For the same molecule, the “neutralization IC80” value in [5] was found to be 7.8 ng/mL; in experiment [6], 5.9 ng/mL; in [3] it was 26.1 ng/mL; in [9], 13.1 ng/mL; in [10], 38.4 ng/mL; in [4], 142 ng/mL.

B4: A23-58.1HC/58.1LC_93VGLTG (antibody, V domains shown)
VH: not shown
VL: EIVLTQSPGTLSLSPGERATLSCRASQSVSSSYLAWYQQKPGQAPRLLIYSASSRATGIPDRFSGSGSGTDFTLTISRLEPEDFAVYFCQQYVGLTGWTFGQGTKVEIK
With B4, in experiment [1], the “BA.1 neutralization, fold improvement over A19-58.1” value is more than 30 fold. Further, the “neutralization IC50” value in experiment [5] was determined as 5.8 ng/mL; in experiment [6], 2.7 ng/mL; in [3], 3.3 ng/mL; in [7], 0.9 ng/mL; in experiment [8] it was 4.1 ng/mL; in experiment [4], 3.4 ng/mL. In addition, the “neutralization IC80” value amounted to 12.4 ng/mL in experiment [5]; 5 ng/mL in experiment [6]; 11.2 ng/mL in experiment [3]; 3 ng/mL in [7]; 14.8 ng/mL in [8]; 11.5 ng/mL in experiment [4].

B5: B1-182.1HC_F100cS/S2E12LC (antibody, V domains shown)
VH: not shown
VL: DIVLTQTPGTLSLSPGERATLSCRASQSVSSSYLAWYQQKPGQAPRLLIYGASSRATGIPDRFSGSGSGTDFTLTISRLEPEDFAVYYCQQYVGLTGWTFGQGTKVEIK
Turning to B5, the “BA.1 neutralization, fold improvement over B1-182.1” value in experiment [1] was more than 14 fold. Also, the “neutralization IC50” value in experiment [5] was 1.2 ng/mL; in experiment [6], 1.5 ng/mL; in experiment [3], 13.9 ng/mL; in experiment [9] it was 8.4 ng/mL; in [10], 9.4 ng/mL; in experiment [4], 14.9 ng/mL. Moreover, the “neutralization IC80” value in [5] was 3.3 ng/mL; in experiment [6] it was 4.4 ng/mL; in experiment [3] it was 51.6 ng/mL; in experiment [9], 20 ng/mL; in experiment [10], 31.7 ng/mL; in experiment [4], 54.2 ng/mL.

B6: A23-58.1HC/S2E12LC (antibody, V domains shown)
VH: not shown
VL: DIVLTQTPGTLSLSPGERATLSCRASQSVSSSYLAWYQQKPGQAPRLLIYGASSRATGIPDRFSGSGSGTDFTLTISRLEPEDFAVYYCQQYVGLTGWTFGQGTKVEIK
On to B6, for which the “BA.1 neutralization, fold improvement over A19-58.1” value in experiment [1] was determined as 10 fold. Also, the “neutralization IC50” value was found to be 2.2 ng/mL in experiment [5]; 3.5 ng/mL in experiment [6]; 9.8 ng/mL in experiment [3]; 3.8 ng/mL in [9]; 6.7 ng/mL in [10]; 56.6 ng/mL in experiment [4]. The “neutralization IC80” value in [5] is 7.6 ng/mL; in experiment [6] it was 7.9 ng/mL; in [3] it was 31.1 ng/mL; in experiment [9], 15.8 ng/mL; in experiment [10], 26.9 ng/mL; in [4], 201 ng/mL.

B7: S2E12 (antibody, V domains shown)
VH: not shown
VL: DIVLTQTPGTLSLSPGERATLSCRASQSVSSSYLAWYQQKPGQAPRLLIYGASSRATGIPDRFSGSGSGTDFTLTISRLEPEDFAVYYCQQYVGLTGWTFGQGTKVEIK
In the case of B7, the “fold loss in neutralization” value in experiment [1] is less than 10 fold loss. Also, in [1], the “pseudovirus neutralization IC50” value worked out at 8.8 ng/mL. In addition, the “neutralization IC50” value in [5] was 1.2 ng/mL; in experiment [6], 3.9 ng/mL; in [9] it was 15.5 ng/mL; in experiment [10] it was 9.9 ng/mL; in experiment [4] it was 15.6 ng/mL. In addition, the “neutralization IC80” value in experiment [5] was 2.6 ng/mL; in experiment [6], 8.7 ng/mL; in [3], 38.5 ng/mL; in [9] it was 55.4 ng/mL; in experiment [10], 48.2 ng/mL; in experiment [4], 46.6 ng/mL.

B8: B1-182.1HC/S2E12LC (antibody, V domains shown)
VH: not shown
VL: DIVLTQTPGTLSLSPGERATLSCRASQSVSSSYLAWYQQKPGQAPRLLIYGASSRATGIPDRFSGSGSGTDFTLTISRLEPEDFAVYYCQQYVGLTGWTFGQGTKVEIK
On to B8, for which the “BA.1 neutralization, fold improvement over B1-182.1” value in [1] was 20 fold. In addition, the “neutralization IC50” value in [5] was determined as 1.1 ng/mL; in [6], 0.8 ng/mL; in experiment [3] it was 9.9 ng/mL; in [9], 4.7 ng/mL; in experiment [10] it was 6.3 ng/mL; in [4] it was 11.5 ng/mL. The “neutralization IC80” value in [5] came out at 2.9 ng/mL; in experiment [6] it was 4.4 ng/mL; in [3], 45.2 ng/mL; in experiment [9] it was 24.2 ng/mL; in experiment [10], 28 ng/mL; in [4], 35 ng/mL.
